One block for each binder: values may come before it.
Legend:
[1] = biological target: FXI in rabbit plasma (rabbit); assay: cell-based or functional assay
[2] = biological target: FXI in rabbit plasma (rabbit); assay: cell-based or functional assay; remark: listed apart in the source
[3] = biological target: FXI in cynomolgus plasma (cynomolgus); assay: cell-based or functional assay
[4] = biological target: T1, FXI in standard human plasma (human, UniProt P03951 19-625); assay: cell-based or functional assay
[5] = biological target: T1, FXI in standard human plasma; assay: cell-based or functional assay; remark: listed apart in the source
[6] = biological target: FXI in monkey plasma (monkey); assay: cell-based or functional assay
[7] = biological target: FXI in rat plasma (rat); assay: cell-based or functional assay
[8] = biological target: T2, hFXI-CHis protein (human, UniProt P03951 19-625); assay: BLI, antibody on Protein A biosensor, hFXI-Chis 50-3.125 nM, 1:1 model
T2 construct: FXI is said in the background to be a dimer; nothing is said of the construct; also called human FXI; human FXI factor protein; not shown: C-terminal His tag (CHis)

APTT ratio in rabbit plasma at 0.1 µg/mL [1]: 0.85 ratio | APTT ratio in rabbit plasma at 0.5 µg/mL [1]: 0.88 ratio | APTT ratio in rabbit plasma at 1 µg/mL [1]: 0.93 ratio | APTT ratio in rabbit plasma at 2 µg/mL [1]: 1.17 ratio | APTT ratio in rabbit plasma at 5 µg/mL [1]: 1.88 ratio | APTT ratio in rabbit plasma at 10 µg/mL [1]: 2.05 ratio | whole blood APTT in rabbit plasma at 0.1 µg/mL [2]: 15.6 | whole blood APTT in rabbit plasma at 0.5 µg/mL [2]: 16.1 | whole blood APTT in rabbit plasma at 1 µg/mL [2]: 17.2 | whole blood APTT in rabbit plasma at 2 µg/mL [2]: 21.5 | whole blood APTT in rabbit plasma at 5 µg/mL [2]: 34.5 | whole blood APTT in rabbit plasma at 10 µg/mL [2]: 37.8 | APTT ratio in cynomolgus plasma at 0.1 µg/mL [3]: 1 ratio | APTT ratio in cynomolgus plasma at 0.5 µg/mL [3]: 1.07 ratio | APTT ratio in cynomolgus plasma at 1 µg/mL [3]: 1.18 ratio | APTT ratio in cynomolgus plasma at 2 µg/mL [3]: 1.89 ratio | APTT ratio in cynomolgus plasma at 5 µg/mL [3]: 2.46 ratio | APTT ratio in cynomolgus plasma at 10 µg/mL [3]: 2.53 ratio | whole blood APTT in standard human plasma at 0.1 µg/mL [4]: 22.9 | whole blood APTT in standard human plasma at 0.5 µg/mL [4]: 25.1 | whole blood APTT in standard human plasma at 1 µg/mL [4]: 28.3 | whole blood APTT in standard human plasma at 2 µg/mL [4]: 38.3 | whole blood APTT in standard human plasma at 5 µg/mL [4]: 47.2 | whole blood APTT in standard human plasma at 10 µg/mL [4]: 48.1 | APTT ratio in standard human plasma at 0.1 µg/mL [5]: 1 ratio | APTT ratio in standard human plasma at 0.5 µg/mL [5]: 1.09 ratio | APTT ratio in standard human plasma at 1 µg/mL [5]: 1.23 ratio | APTT ratio in standard human plasma at 2 µg/mL [5]: 1.67 ratio | APTT ratio in standard human plasma at 5 µg/mL [5]: 2.05 ratio | APTT ratio in standard human plasma at 10 µg/mL [5]: 2.09 ratio | whole blood APTT in monkey plasma at 0.1 µg/mL [6]: 20.9 | whole blood APTT in monkey plasma at 0.5 µg/mL [6]: 22.4 | whole blood APTT in monkey plasma at 1 µg/mL [6]: 24.7 | whole blood APTT in monkey plasma at 2 µg/mL [6]: 39.6 | whole blood APTT in monkey plasma at 5 µg/mL [6]: 51.4 | whole blood APTT in monkey plasma at 10 µg/mL [6]: 52.8 | APTT ratio in rat plasma at 0.5 µg/mL [7]: 1.08 ratio | APTT ratio in rat plasma at 1 µg/mL [7]: 1.04 ratio | APTT ratio in rat plasma at 2 µg/mL [7]: 1.13 ratio | APTT ratio in rat plasma at 5 µg/mL [7]: 1.37 ratio | APTT ratio in rat plasma at 10 µg/mL [7]: 1.34 ratio | APTT ratio in rat plasma at 30 µg/mL [7]: 1.37 ratio
B1: reference antibody 14E11 (antibody, human IgG1, kappa, V domains shown)
VH: QVQLEESGPGLVAPSQSLSITCTVSGFSLTGYGIYWVRQPPGKGLEWLGMIWGDGRTDYNSALKSRLSISKDNSKSQVFLKMNSLQTDDTARYYCARDYYGSKDYWGQGTTLTVSS
VL: DIVMTQSHKFMSTSVGDRVSITCKASQDVSTAVAWYQQKPGQSPKLLIYLTSYRNTGVPDRFTGSGSGTDFTFTISSVQAEDLAVYYCQQHYKTPYSFGGGTKLERLR

Kd [8]: 4.12 nM | whole blood APTT in rabbit plasma at 0.1 µg/mL [2]: 15.3 | whole blood APTT in rabbit plasma at 0.5 µg/mL [2]: 16 | whole blood APTT in rabbit plasma at 1 µg/mL [2]: 16.4 | whole blood APTT in rabbit plasma at 2 µg/mL [2]: 18.1 | whole blood APTT in rabbit plasma at 5 µg/mL [2]: 24.1 | whole blood APTT in rabbit plasma at 10 µg/mL [2]: 28.8 | whole blood APTT in standard human plasma at 0.1 µg/mL [4]: 22.9 | whole blood APTT in standard human plasma at 0.5 µg/mL [4]: 26.3 | whole blood APTT in standard human plasma at 1 µg/mL [4]: 29.2 | whole blood APTT in standard human plasma at 2 µg/mL [4]: 36.4 | whole blood APTT in standard human plasma at 5 µg/mL [4]: 45.6 | whole blood APTT in standard human plasma at 10 µg/mL [4]: 51.1 | APTT ratio in standard human plasma at 0.1 µg/mL [5]: 1 ratio | APTT ratio in standard human plasma at 0.5 µg/mL [5]: 1.14 ratio | APTT ratio in standard human plasma at 1 µg/mL [5]: 1.27 ratio | APTT ratio in standard human plasma at 2 µg/mL [5]: 1.58 ratio | APTT ratio in standard human plasma at 5 µg/mL [5]: 1.98 ratio | APTT ratio in standard human plasma at 10 µg/mL [5]: 2.22 ratio | whole blood APTT in monkey plasma at 0.1 µg/mL [6]: 21 | whole blood APTT in monkey plasma at 0.5 µg/mL [6]: 23.1 | whole blood APTT in monkey plasma at 1 µg/mL [6]: 25.6 | whole blood APTT in monkey plasma at 2 µg/mL [6]: 30.2 | whole blood APTT in monkey plasma at 5 µg/mL [6]: 37.1 | whole blood APTT in monkey plasma at 10 µg/mL [6]: 42.5
B2: reference antibody BAY1213790 (antibody, human IgG1, kappa, V domains shown)
VH: EVQLLESGGGLVQPGGSLRLSCAASGFTFSQYGMDWVRQAPGKGLEWVSGIGPSGGSTVYADSVKGRFTISRDNSKNTLYLQMNSLRAEDTAVYYCTRGGPYYYYGMDVWGQGTTVTVSS
VL: DIQMTQSPSSLSASVGDRVTITCQASQDISNYLNWYQQKPGKAPKLLIYDASNLETGVPSRFSGSGSGTDFTFTISSLQPEDIATYYCQQADSFPVTFGGGTKVEIKR
notes: Anti-FXI antibody developed by Bayer

Reference: US20250034277A1 (SUZHOU ALPHAMAB, published 2025)
